Legend:
[1] = tested on: antigen specific Th17 T cells; experiment: Th17 ELISpot of splenocytes challenged with MOG; type: in vivo; details: splenocytes of treated mice with EAE induced, MOG challenge
Source text: To further explore the mechanism for tolerance induction in EAE animals treated with bolus immunoconjugate, T cell analyses (ELISpot and passive EAE assays) were completed in mice that received the immunoconjugate or control therapies (FIG. 36A-C). Splenocytes from mice treated with MOG alone or Dex-MOG with EAE induced were challenged with MOG to quantitate antigen specific elaboration of IL-17.

[2] = tested on: CD8+ T cells from OT-I mice; experiment: OT-I: DC co-culture, CFSE T cell proliferation; type: cell-based, mouse; details: dexamethasone-SIINFEKL 1.0 μM; ovalbumin 0.2 μM
Experimental: Cytotoxic T-lymphocytes (CTLs) were purified using magnetic beads (Miltenyi Biotec) from the spleens of the T cell receptor (TCR) transgenic OT-I mice (Jackson Laboratories) following the manufacturer's protocol. OT-I mice express a transgenic T cell receptor that recognizes ovalbumin residues 257-264 in the context of H2Kb. The CTLs were cultured with a 1:1 ratio with BMDC for 3 days at 37° C. in R10 media. […] The cells were washed two times before culturing with the T cells. Dexamethasone-TRP-2 was made following the same solid phase method as described above (Peptide synthesizer: CS Bio, DIPEA, Piperidine, TFA, and NMP: Advanced ChemTech, DCM: Sigma, amino acids and resin: Peptides International, dexamethasone hemisuccinate: Steraloids). Three days later, the cells were harvested and analyzed by flow cytometry using the BD LSR II Fortessa. The plots for flow cytometry were obtained using FCS Express.
Carboxyfluorescein succinimidyl ester (CFSE) labeled CD8+ T cells from TCR transgenic OT-I mice were cultured with BMDC for 3 days. […] Three days later, the cells were analyzed by flow cytometry.

[3] = release of conjugate from the MPS scaffold; type: physicochemical
Experimental: FIG. 48 is a line graph showing the evaluation of the release kinetics of the GnRH-OVA conjugate from the MPS scaffold. The conjugate was loaded into the MPS scaffold for 8 hours at room temperature (RT).
C57bl/6J mice were immunized with MPS scaffold containing 1 ug GM-CSF and 100 ug OVA, 1 ug GM-CSF, 100 ug CpG and 100 ug OVA (MPS vaccine) or 1 ug GM-CSF and 100 ug OVA conjugated to 100 ug CpG (MPS conjugate vaccine). After 7 days, peripheral blood was analyzed using […] tetramer and the percentage of […] specific T cells within CD3+CD8+ T cells was quantified. MPS conjugate vaccine increased the presence of […] specific CD8+ T cells by 2 fold compared with the MPS vaccine (FIG. 40, bottom).

[4] = tested on: bone marrow derived dendritic cells (BMDC); experiment: BMDC presentation of […] from CpG-OVA conjugate (flow cytometry); type: cell-based; details: 18 hours; compared to unconjugated CpG and OVA
Experimental: CpG-OVA conjugate was cultured with bone marrow derived dendritic cells (BMDC) in vitro for 18 hours. BMDC presentation of […] was analyzed using flow cytometry and percentage of CD11c+ DCs presenting the […] peptide on the MHC-I molecule was quantified.

Molecule: MEVGWYRSPFSRVVHLYRNGK [MOG alone, myelin oligodendrocyte glycoprotein residues 35-55, reference compound]
- IL-17 spot forming cells [1]: 230±10 spot forming cells per million

B1: ovalbumin: model antigen protein (protein, UniProt P01012 2-386, looked up)
Ovalbumin: GSIGAASMEFCFDVFKELKVHHANENIFYCPIAIMSALAMVYLGAKDSTRTQINKVVRFDKLPGFGDSIEAQCGTSVNVHSSLRDILNQITKPNDVYSFSLASRLYAEERYPILPEYLQCVKELYRGGLEPINFQTAADQARELINSWVESQTNGIIRNVLQPSSVDSQTAMVLVNAIVFKGLWEKAFKDEDTQAMPFRVTEQESKPVQMMYQIGLFRVASMASEKMKILELPFASGTMSMLVLLPDEVSGLEQLESIINFEKLTEWTSSNVMEERKIKVYLPRMKMEEKYNLTSVLMAMGITDVFSSSANLSGISSAESLKISQAVHAAHAEINEAGREVVGSAEAGVDAASVSEEFRADHPFLFCIKHIATNAVLFFGRCVSP
- OT-I T cell proliferation, BMDC pretreated with antigen [2]: initiated a stronger proliferative response

B2: CpG-OVA conjugate: OVA protein linked through maleimide to reduced thiol-CpG (conjugate, UniProt P01012 2-386, looked up)
Ovalbumin: GSIGAASMEFCFDVFKELKVHHANENIFYCPIAIMSALAMVYLGAKDSTRTQINKVVRFDKLPGFGDSIEAQCGTSVNVHSSLRDILNQITKPNDVYSFSLASRLYAEERYPILPEYLQCVKELYRGGLEPINFQTAADQARELINSWVESQTNGIIRNVLQPSSVDSQTAMVLVNAIVFKGLWEKAFKDEDTQAMPFRVTEQESKPVQMMYQIGLFRVASMASEKMKILELPFASGTMSMLVLLPDEVSGLEQLESIINFEKLTEWTSSNVMEERKIKVYLPRMKMEEKYNLTSVLMAMGITDVFSSSANLSGISSAESLKISQAVHAAHAEINEAGREVVGSAEAGVDAASVSEEFRADHPFLFCIKHIATNAVLFFGRCVSP
modifications: CpG oligonucleotide via maleimide linker
- release from the MPS scaffold [3]: released in a sustained manner followed by a burst release
- CD11c+ DCs presenting SIINFEKL on MHC-I [4]: enhanced presentation
